From patent US20140186370A1 (Kyowa Kirin, published 2014)

Target: T1, H3 protein ectodomain from vaccinia virus strain Lister with C-terminal 6-HIS tag, expressed from pET21a(+) (vaccinia virus strain Lister, UniProt P20497 1-269)
T1 chain: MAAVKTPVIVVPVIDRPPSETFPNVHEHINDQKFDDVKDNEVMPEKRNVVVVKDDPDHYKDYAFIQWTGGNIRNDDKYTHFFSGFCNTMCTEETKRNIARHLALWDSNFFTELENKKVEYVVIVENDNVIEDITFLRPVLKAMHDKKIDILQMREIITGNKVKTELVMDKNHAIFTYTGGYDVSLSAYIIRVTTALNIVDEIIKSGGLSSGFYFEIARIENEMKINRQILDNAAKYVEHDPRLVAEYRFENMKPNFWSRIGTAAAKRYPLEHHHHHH
Experiment: Western blot on E. coli lysates (FIG. 12A)

B1: 130D67 human anti-H3L monoclonal antibody (antibody, V domains shown)
VH: EVQLVESGGGLVQPGRSLRLSCAASGFTFDDYAIHWVRQAPGKGLEWVSGISWNGRSIGYADSVKGRFTISRDNAKNSLYLQMNSLRAEDTALYYCAKDIGFYGSGSLDYWGQGTLVTVSS
VL: not shown
Q: Does B1 bind?
A: binds
